Results: patent publication US20020156009A1 (published 2002)

B1: interleukin-1 (IL-1) receptor on human cells (receptor, UniProt P14778 18-569, looked up)
chain: LEADKCKEREEKIILVSSANEIDVRPCPLNPNEHKGTITWYKDDSKTPVSTEQASRIHQHKEKLWFVPAKVEDSGHYYCVVRNSSYCLRIKISAKFVENEPNLCYNAQAIFKQKLPVAGDGGLVCPYMEFFKNENNELPKLQWYKDCKPLLLDNIHFSGVKDRLIVMNVAEKHRGNYTCHASYTYLGKQYPITRVIEFITLEENKPTRPVIVSPANETMEVDLGSQIQLICNVTGQLSDIAYWKWNGSVIDEDDPVLGEDYYSVENPANKRRSTLITVLNISEIESRFYKHPFTCFAKNTHGIDAAYIQLIYPVTNFQKHMIGICVTLTVIIVCSVFIYKIFKIDIVLWYRDSCYDFLPIKASDGKTYDAYILYPKTVGEGSTSDCDIFVFKVLPEVLEKQCGYKLFIYGRDDYVGEDIVEVINENVKKSRRLIIILVRETSGFSWLGGSSEEQIAMYNALVQDGIKVVLLELEKIQDYEKMPESIKFIKQKHGAIRWSGDFTQGPQSAKTRFWKNVRYHMPVQRRSPSSKHQLLSPATKEKLQREAHVPLG
notes: whole, on cells

Assays:
[1] = target: interleukin-1 (IL-1) receptor on human cells (human) (UniProt P14778); assay: cell-based or functional assay
[2] = target: T1, bovine serum albumin (BSA) (bovine, UniProt P02769 25-607); assay: FACS on human fibroblast cells (CCD 1089)
T1 construct: also called non-related protein
T1 sequence (P02769 25-607 limits assumed): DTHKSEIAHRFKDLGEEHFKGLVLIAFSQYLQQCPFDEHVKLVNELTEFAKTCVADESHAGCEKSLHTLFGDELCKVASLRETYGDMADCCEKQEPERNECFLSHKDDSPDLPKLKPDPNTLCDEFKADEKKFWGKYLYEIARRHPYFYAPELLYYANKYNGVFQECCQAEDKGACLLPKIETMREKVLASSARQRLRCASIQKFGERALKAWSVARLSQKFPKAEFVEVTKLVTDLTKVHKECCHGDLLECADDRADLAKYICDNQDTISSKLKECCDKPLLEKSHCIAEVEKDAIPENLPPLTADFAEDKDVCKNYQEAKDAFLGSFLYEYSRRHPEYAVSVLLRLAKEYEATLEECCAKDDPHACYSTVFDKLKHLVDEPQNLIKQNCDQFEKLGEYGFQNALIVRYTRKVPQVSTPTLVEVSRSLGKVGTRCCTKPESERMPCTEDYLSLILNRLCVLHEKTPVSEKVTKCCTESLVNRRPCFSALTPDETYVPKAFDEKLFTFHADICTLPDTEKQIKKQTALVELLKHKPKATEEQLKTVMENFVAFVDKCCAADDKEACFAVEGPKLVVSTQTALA
Protocol: A cell binding assay was carried out, in a modification of the procedure as described above in Example 7.1, to determine if IL-1 Hy2 of the invention binds to the interleukin-1 (IL-1) receptor. Briefly, fluorescent activated cell sorting (FACS) was used to measure cell binding of the recombinant protein (see Example 6) using fluorescent antibodies specific for the express tag on the IL-1 Hy2 recombinant protein. In each reaction, 10⁶ cells of human fibroblast cells (CCD 1089) were suspended in 100 μl of FACS buffer (containing distilled PBS, 3% calf serum and 0.01% azide). Cell binding reactions included 5 nM recombinant IL-1 Hy2 in 100 μl cell suspension. The cells were incubated on ice for one hour. The cells were pelleted by centrifugation, 200 μl of 0.2 mM BS3 (crosslinker) was added, and the cells were kept on ice for 30 minutes. Next, 10 μl […] pH 7.5 was added and the cells were incubated for 15 minutes on ice. The cells were pelleted by centrifugation, washed one time in FACS buffer, resuspended in 100 μl volume of FACS buffer, 2 μl primary antibody (anti-express tag antibody 1 mg/ml) was added, and incubation continued on ice for an additional 30 minutes. […] The cells were again pelleted by centrifugation, washed two times with FACS buffer, resuspended in 0.5 ml FACS buffer and analyzed on FACS.

Molecule	inhibition of IL-1β induced PGE2 production, human fibroblasts (CCD 1098), 1 ng/ml IL-1β, IL-1 Hy2 at 1000 fold excess, PGE2 ELISA [1] [%]	binding result [2]
IL-1 Hy2 (preparation used in the cell-based activity assays) (from UniProt Q8WWZ1 1-152) (ligand)	40 to 60	–
B1	–	no binding (tested: same molarity as IL-1 Hy2 (5 nM))
